T1: human LEPR-ECD-His (human, UniProt P48357 22-839)
T1 sequence: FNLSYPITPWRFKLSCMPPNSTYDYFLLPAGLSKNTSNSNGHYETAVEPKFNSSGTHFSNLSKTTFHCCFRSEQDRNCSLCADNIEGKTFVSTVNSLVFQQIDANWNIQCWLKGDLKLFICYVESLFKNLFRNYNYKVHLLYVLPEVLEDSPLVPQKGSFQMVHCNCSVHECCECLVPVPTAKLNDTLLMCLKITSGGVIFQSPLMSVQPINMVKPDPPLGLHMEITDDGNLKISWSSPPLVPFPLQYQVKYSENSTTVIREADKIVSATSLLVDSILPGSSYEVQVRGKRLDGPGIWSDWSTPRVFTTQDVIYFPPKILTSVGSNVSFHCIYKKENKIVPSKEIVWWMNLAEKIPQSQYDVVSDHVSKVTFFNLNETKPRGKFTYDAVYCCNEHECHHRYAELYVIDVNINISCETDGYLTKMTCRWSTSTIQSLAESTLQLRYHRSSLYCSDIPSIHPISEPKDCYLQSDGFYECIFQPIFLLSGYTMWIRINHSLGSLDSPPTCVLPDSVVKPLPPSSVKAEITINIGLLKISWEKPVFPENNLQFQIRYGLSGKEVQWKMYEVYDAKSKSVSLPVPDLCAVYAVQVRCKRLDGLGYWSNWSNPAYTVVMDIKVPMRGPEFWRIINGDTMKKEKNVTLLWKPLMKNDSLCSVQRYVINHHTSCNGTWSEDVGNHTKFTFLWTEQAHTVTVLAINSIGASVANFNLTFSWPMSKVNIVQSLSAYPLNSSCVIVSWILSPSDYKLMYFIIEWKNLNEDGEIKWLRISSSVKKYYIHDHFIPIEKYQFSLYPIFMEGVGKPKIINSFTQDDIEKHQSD

T2: human LEPR, full length, on HEK293-STAT3Luc-hLepR1 cells (Homo sapiens, UniProt P48357 22-1165)
T2 construct: also called human LEPR on live cell surface
T2 sequence: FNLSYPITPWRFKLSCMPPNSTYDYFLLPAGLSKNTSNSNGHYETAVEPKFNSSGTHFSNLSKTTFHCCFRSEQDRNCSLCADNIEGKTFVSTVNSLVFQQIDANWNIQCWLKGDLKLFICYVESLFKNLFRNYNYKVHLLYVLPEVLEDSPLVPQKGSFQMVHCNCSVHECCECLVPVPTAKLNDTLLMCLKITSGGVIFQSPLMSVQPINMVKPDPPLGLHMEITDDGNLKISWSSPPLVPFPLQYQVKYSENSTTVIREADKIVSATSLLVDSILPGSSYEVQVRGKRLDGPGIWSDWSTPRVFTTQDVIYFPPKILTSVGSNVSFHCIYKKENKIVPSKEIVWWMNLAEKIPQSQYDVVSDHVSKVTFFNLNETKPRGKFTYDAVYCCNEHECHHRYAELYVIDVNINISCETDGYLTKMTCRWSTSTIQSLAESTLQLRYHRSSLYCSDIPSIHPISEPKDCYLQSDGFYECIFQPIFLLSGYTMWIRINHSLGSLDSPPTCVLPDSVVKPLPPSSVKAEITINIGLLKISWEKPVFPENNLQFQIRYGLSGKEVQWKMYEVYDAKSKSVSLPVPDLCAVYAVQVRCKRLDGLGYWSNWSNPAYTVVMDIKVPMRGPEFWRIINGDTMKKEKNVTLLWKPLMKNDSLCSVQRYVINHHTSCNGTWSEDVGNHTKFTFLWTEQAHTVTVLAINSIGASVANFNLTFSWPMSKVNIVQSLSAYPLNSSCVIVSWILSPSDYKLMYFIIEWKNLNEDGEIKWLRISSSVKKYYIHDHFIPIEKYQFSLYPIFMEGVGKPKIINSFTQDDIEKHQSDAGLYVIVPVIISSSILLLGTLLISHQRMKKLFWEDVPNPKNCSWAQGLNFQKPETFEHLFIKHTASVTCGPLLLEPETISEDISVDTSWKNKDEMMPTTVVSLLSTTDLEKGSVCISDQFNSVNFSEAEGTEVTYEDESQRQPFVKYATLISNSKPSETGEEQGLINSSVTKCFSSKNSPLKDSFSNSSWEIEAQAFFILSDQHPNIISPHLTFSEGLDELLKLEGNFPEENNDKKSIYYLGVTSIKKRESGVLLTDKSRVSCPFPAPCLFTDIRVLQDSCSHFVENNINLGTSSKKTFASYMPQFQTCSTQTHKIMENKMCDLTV

T3: Mouse LEPR-ECD-His (mouse, UniProt P48356 22-839)
T3 sequence: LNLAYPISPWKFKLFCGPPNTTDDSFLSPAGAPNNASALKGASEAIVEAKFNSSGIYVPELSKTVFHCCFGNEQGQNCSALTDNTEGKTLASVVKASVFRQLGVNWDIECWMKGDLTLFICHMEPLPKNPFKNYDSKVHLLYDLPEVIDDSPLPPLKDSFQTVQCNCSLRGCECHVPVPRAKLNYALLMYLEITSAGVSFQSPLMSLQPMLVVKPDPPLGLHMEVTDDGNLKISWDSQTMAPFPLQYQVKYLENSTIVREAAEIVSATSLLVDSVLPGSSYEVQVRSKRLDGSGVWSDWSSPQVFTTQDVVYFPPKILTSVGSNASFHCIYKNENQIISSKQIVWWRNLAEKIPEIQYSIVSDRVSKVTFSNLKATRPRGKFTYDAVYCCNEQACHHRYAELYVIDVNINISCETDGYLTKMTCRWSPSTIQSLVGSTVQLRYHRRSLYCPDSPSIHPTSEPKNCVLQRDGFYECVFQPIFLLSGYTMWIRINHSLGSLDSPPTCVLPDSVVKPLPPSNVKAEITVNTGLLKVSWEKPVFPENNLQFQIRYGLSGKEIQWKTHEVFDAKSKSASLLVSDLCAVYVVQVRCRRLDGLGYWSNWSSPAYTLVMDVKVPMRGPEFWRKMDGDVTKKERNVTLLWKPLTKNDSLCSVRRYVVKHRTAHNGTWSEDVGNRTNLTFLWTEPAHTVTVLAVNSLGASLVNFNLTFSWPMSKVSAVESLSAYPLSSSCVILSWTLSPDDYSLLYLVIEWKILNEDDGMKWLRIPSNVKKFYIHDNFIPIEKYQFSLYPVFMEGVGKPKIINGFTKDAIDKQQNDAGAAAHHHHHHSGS


Key:
human LEPR-ECD-His = target: T1, human LEPR-ECD-His; assay: SPR (Biacore T200), antibody captured on Protein A/G chip, His-tagged LEPR-ECD as analyte, 1:1 fit; mean n=3, SD 6.8E-9
Protocol: (§1) His-tagged ECDs were expressed and purified for each species and used for affinity analysis. A Protein A/G chip (Xantec, Cat #PAGHC200M) was utilized in this experiment with HBS-EP +0.01% BSA as running buffer. Antibodies were diluted to 1 μg/mL in running buffer and captured to a single flow cell on the chip surface. Each species of LEPR-ECD was diluted to 1000 nM in running buffer followed by 2-fold serial dilution. Each ligand concentration was injected over all flow cells at 100 L/min for 150 seconds followed by a 600 second dissociation phase. Regeneration was performed by injecting 10 mM glycine pH1.5 for 30 seconds at 10 μL/min. Data were analyzed in Biacore T200 Evaluation Software 3.1 by flow-cell 1 reference subtraction along with 0 nM blank subtraction. Data were fit globally using a “1:1 Binding” binding model to determine the on-rate (kₐ) and off-rate (kd) for each ligand. The affinity (KD) was calculated from the binding kinetics according to the relationship KD=kₐ/kd. Data reported as mean±standard deviation of experimental replicates.

[1] = target: T2, human LEPR, full length, on …; assay: flow cytometry on live HEK293-STAT3Luc-hLepR1 cells, AF647 anti-human IgG; average of 4 runs, SD 7.1
Protocol: Cells were incubated in blocking buffer for 10 mins at room temperature. After one rinse with PBS, cells were transferred to U-bottom 96-well plate at 200 μL and 0.2˜0.26^e6 cells/well. […] Cells were then incubated with 30 μL/well of antibodies diluted in flow buffer at 1000 nM as high dose followed by 9-point dose response including 5-fold dilutions not including 0 (totaling 9 concentrations for each Antibody) for 30 minutes at 4° C. in dark.

Mouse LEPR-ECD-His = target: T3, Mouse LEPR-ECD-His; assay: SPR (Biacore T200), antibody captured on Protein A/G chip, n = 1
Protocol: as §1

Binder | Kd (human LEPR-ECD-His) | EC50 [1] | binding result (Mouse LEPR-ECD-His)
Antibody B (antibody, human IgG1, kappa, L234A L235A, V domains shown) VH: EVQLLESGGGLVQPGGSLRLSCAASGFTFSSFAMSWVRQAPGKGLEWVSAISGSGGSTYSADSVRGRFTISRDNSKNTLYLQMNSLRAEDTAVYYCAKDQGDWDFLFDYWGQGTLVTVSS VL: DIQMTQSPSFLSASVGDRVTITCRVSQGISSSLAWYQQKPGKAPKLLIYTASTLQSGVPSRFSGSGSGTEFTLTISSLQPEDFATYYCQQLNYYPFTFGQGTKVEIKR | 22 nM | 13.6 nM | 
Antibody C (antibody, human IgG1, kappa, L234A L235A, V domains shown) VH: EVQLLESGGGLVQPGGSLRLSCAASGFTFSSFAMSWVRQAPGKGLEWVSAISGSGGSTYSADSVRGRFTISRDNSKNTLYLQMNSLRAEDTAVYYCAKDQGDWDFLFDYWGQGTLVTVSS VL: DIQMTQSPSFLSASVGDRVTITCRASQGISSSLAWYQQKPGKAPKLLIYTASTLQSGVPSRFSGSGSGTEFTLTISSLQPEDFATYYCQQLNYYPFSFGQGTKVEIKR |  |  | no binding (tested: LEPR-ECD tested up to 1000 nM)
